# T1: human PAC1 receptor (human, UniProt P41586 24-468)
# T1 sequence: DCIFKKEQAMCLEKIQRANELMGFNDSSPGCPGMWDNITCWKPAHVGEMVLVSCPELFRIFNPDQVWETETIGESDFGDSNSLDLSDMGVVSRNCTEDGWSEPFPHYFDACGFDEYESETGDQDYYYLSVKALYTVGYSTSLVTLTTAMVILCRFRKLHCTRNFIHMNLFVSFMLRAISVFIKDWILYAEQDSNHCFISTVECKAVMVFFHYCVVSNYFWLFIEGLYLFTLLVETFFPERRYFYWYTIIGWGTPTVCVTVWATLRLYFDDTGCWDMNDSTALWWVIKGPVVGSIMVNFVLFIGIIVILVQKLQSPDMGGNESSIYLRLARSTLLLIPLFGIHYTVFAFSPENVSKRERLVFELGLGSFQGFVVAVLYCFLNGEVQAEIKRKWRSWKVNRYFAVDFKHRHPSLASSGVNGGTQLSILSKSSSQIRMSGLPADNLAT
# How the values were obtained:
# human CGRP receptor = human CGRP receptor (human, UniProt Q16602 23-461; O60894 27-148); assay: cell-based or functional assay
# human PAC1 receptor = molecular target: T1, human PAC1 receptor; assay: cell-based or functional assay
# human CGRP receptor, sequence (Q16602 23-461 limits assumed, chain 1 of 2): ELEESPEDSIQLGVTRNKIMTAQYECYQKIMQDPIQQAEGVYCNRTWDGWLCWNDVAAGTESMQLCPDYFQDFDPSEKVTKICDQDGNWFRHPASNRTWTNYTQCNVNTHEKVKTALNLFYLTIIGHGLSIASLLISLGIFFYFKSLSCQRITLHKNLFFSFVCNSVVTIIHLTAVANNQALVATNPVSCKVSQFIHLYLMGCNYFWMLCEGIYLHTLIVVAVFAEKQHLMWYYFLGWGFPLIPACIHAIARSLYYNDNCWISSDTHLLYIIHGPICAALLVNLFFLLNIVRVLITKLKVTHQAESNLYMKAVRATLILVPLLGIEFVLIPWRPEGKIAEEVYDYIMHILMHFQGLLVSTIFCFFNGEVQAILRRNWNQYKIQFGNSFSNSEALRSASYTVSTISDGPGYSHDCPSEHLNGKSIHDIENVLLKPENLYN
# human CGRP receptor, sequence (O60894 27-148 limits assumed, chain 2 of 2): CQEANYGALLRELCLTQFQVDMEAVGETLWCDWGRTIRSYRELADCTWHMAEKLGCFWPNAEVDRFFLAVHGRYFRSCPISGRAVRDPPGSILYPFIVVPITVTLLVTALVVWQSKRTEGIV
Binder,Fold-improvement over 4E4 Ab (human CGRP receptor),IC50 (human CGRP receptor),Fold-improvement over 29G4v22 Ab (human PAC1 receptor),IC50 (human PAC1 receptor)
"iPS:454911 (bispecific antibody, human IgG1, kappa, lambda, N297G) light 1: QSVLTQPPSVSAAPGQKVTISCSGSSSNIGNNYVSWYQQLPGTAPKLLIYDNNKRPSGIPDRFSGSKSGTSTTLGITGLQTGDEADYYCGTWDSRLSAVVFGGGTKLTVLGQPKAAPSVTLFPPSSEELQANKATLVCLISDFYPGAVTVAWKADSSPVKAGVETTTPSKQSNNKYAAKSYLSLTPEQWKSHRSYSCQVTHEGSTVEKTVAPTECS heavy 1: QVQLVESGGGVVQPGRSLRLSCAASGFTFSSFGMHWVRQAPGKGLEWVAVISFDGSIKYSVDSVKGRFTISRDNSKNTLFLQMNSLRAEDTAVYYCARDRLNYYRSFGYYGYHYYGMAVWGQGTTVTVSSASTKGPSVFPLAPSSKSTSGGTAALGCLVKDYFPEPVTVSWNSGALTSGVHTFPAVLQSSGLYSLESVVTVPSSSLGTQTYICNVNHKPSNTKVDKKVEPKSCDKTHTCPPCPAPELLGGPSVFLFPPKPKDTLMISRTPEVTCVVVDVSHEDPEVKFNWYVDGVEVHNAKTKPCEEQYGSTYRCVSVLTVLHQDWLNGKEYKCKVSNKALPAPIEKTISKAKGQPREPQVYTLPPSRKKMTKNQVSLTCLVKGFYPSDIAVEWESNGQPENNYKTTPPVLKSDGSFFLYSKLTVDKSRWQQGNVFSCSVMHEALHNHYTQKSLSLSPGK light 2: EIVLTQSPATLSLSPGERATLSCRASKSVGWSLHWYQQKPGQAPRLLIKYASQSLSGIPARFSGSGSGTDFTLTISSLEPEDFAVYYCHQSSRLPFTFGPGTKVDIKRTVAAPSVFIFPPSDEQLKSGTASVVCLLNNFYPREAKVQWKVDNALQSGNSQESVTEQDSKDSTYSLESTLTLSKADYEKHKVYACEVTHQGLSSPVTKSFNRGEC heavy 2: not shown",0.3 fold,1.98 nM,9.1 fold,0.81 nM
"iPS:454913 (bispecific antibody, human IgG1, kappa, lambda, N297G) light 1: QSVLTQPPSVSAAPGQKVTISCSGSSSNIGNNYVSWYQQLPGTAPKLLIYDNNKRPSGIPDRFSGSKSGTSTTLGITGLQTGDEADYYCGTWDSRLSAVVFGGGTKLTVLGQPKAAPSVTLFPPSSEELQANKATLVCLISDFYPGAVTVAWKADSSPVKAGVETTTPSKQSNNKYAAKSYLSLTPEQWKSHRSYSCQVTHEGSTVEKTVAPTECS heavy 1: QVQLVESGGGVVQPGRSLRLSCAASGFTFSSFGMHWVRQAPGKGLEWVAVISFDGSIKYSVDSVKGRFTISRDNSKNTLFLQMNSLRAEDTAVYYCARDRLNYYRSFGYYGYHYYGMAVWGQGTTVTVSSASTKGPSVFPLAPSSKSTSGGTAALGCLVKDYFPEPVTVSWNSGALTSGVHTFPAVLQSSGLYSLESVVTVPSSSLGTQTYICNVNHKPSNTKVDKKVEPKSCDKTHTCPPCPAPELLGGPSVFLFPPKPKDTLMISRTPEVTCVVVDVSHEDPEVKFNWYVDGVEVHNAKTKPCEEQYGSTYRCVSVLTVLHQDWLNGKEYKCKVSNKALPAPIEKTISKAKGQPREPQVYTLPPSRKKMTKNQVSLTCLVKGFYPSDIAVEWESNGQPENNYKTTPPVLKSDGSFFLYSKLTVDKSRWQQGNVFSCSVMHEALHNHYTQKSLSLSPGK light 2: EIVLTQSPATLSLSPGERATLSCRASKSVGWSLHWYQQKPGQAPRLLIKYASQSLSGIPARFSGSGSGTDFTLTISSLEPEDFAVYYCHQSSRLPFTFGPGTKVDIKRTVAAPSVFIFPPSDEQLKSGTASVVCLLNNFYPREAKVQWKVDNALQSGNSQESVTEQDSKDSTYSLESTLTLSKADYEKHKVYACEVTHQGLSSPVTKSFNRGEC heavy 2: not shown",0.3 fold,2.11 nM,5.2 fold,1.33 nM
"iPS:454915 (bispecific antibody, human IgG1, kappa, lambda, N297G) light 1: QSVLTQPPSVSAAPGQKVTISCSGSSSNIGNNYVSWYQQLPGTAPKLLIYDNNKRPSGIPDRFSGSKSGTSTTLGITGLQTGDEADYYCGTWDSRLSAVVFGGGTKLTVLGQPKAAPSVTLFPPSSEELQANKATLVCLISDFYPGAVTVAWKADSSPVKAGVETTTPSKQSNNKYAAKSYLSLTPEQWKSHRSYSCQVTHEGSTVEKTVAPTECS heavy 1: QVQLVESGGGVVQPGRSLRLSCAASGFTFSSFGMHWVRQAPGKGLEWVAVISFDGSIKYSVDSVKGRFTISRDNSKNTLFLQMNSLRAEDTAVYYCARDRLNYYRSFGYYGYHYYGMAVWGQGTTVTVSSASTKGPSVFPLAPSSKSTSGGTAALGCLVKDYFPEPVTVSWNSGALTSGVHTFPAVLQSSGLYSLESVVTVPSSSLGTQTYICNVNHKPSNTKVDKKVEPKSCDKTHTCPPCPAPELLGGPSVFLFPPKPKDTLMISRTPEVTCVVVDVSHEDPEVKFNWYVDGVEVHNAKTKPCEEQYGSTYRCVSVLTVLHQDWLNGKEYKCKVSNKALPAPIEKTISKAKGQPREPQVYTLPPSRKKMTKNQVSLTCLVKGFYPSDIAVEWESNGQPENNYKTTPPVLKSDGSFFLYSKLTVDKSRWQQGNVFSCSVMHEALHNHYTQKSLSLSPGK light 2: EIVLTQSPATLSLSPGERATLSCRASKSVGWSLHWYQQKPGQAPRLLIKYASQSLSGIPARFSGSGSGTDFTLTISSLEPEDFAVYYCHQSSRLPFTFGPGTKVDIKRTVAAPSVFIFPPSDEQLKSGTASVVCLLNNFYPREAKVQWKVDNALQSGNSQESVTEQDSKDSTYSLESTLTLSKADYEKHKVYACEVTHQGLSSPVTKSFNRGEC heavy 2: not shown",0.4 fold,1.25 nM,10.5 fold,0.66 nM

# More lines, now with the values ahead:
Fold-improvement over 4E4 Ab (human CGRP receptor),IC50 (human CGRP receptor),Fold-improvement over 29G4v22 Ab (human PAC1 receptor),IC50 (human PAC1 receptor),Binder
0.4 fold,1.34 nM,11.4 fold,0.61 nM,"iPS:454917 (bispecific antibody, human IgG1, kappa, lambda, N297G) light 1: QSVLTQPPSVSAAPGQKVTISCSGSSSNIGNNYVSWYQQLPGTAPKLLIYDNNKRPSGIPDRFSGSKSGTSTTLGITGLQTGDEADYYCGTWDSRLSAVVFGGGTKLTVLGQPKAAPSVTLFPPSSEELQANKATLVCLISDFYPGAVTVAWKADSSPVKAGVETTTPSKQSNNKYAAKSYLSLTPEQWKSHRSYSCQVTHEGSTVEKTVAPTECS heavy 1: QVQLVESGGGVVQPGRSLRLSCAASGFTFSSFGMHWVRQAPGKGLEWVAVISFDGSIKYSVDSVKGRFTISRDNSKNTLFLQMNSLRAEDTAVYYCARDRLNYYRSFGYYGYHYYGMAVWGQGTTVTVSSASTKGPSVFPLAPSSKSTSGGTAALGCLVKDYFPEPVTVSWNSGALTSGVHTFPAVLQSSGLYSLESVVTVPSSSLGTQTYICNVNHKPSNTKVDKKVEPKSCDKTHTCPPCPAPELLGGPSVFLFPPKPKDTLMISRTPEVTCVVVDVSHEDPEVKFNWYVDGVEVHNAKTKPCEEQYGSTYRCVSVLTVLHQDWLNGKEYKCKVSNKALPAPIEKTISKAKGQPREPQVYTLPPSRKKMTKNQVSLTCLVKGFYPSDIAVEWESNGQPENNYKTTPPVLKSDGSFFLYSKLTVDKSRWQQGNVFSCSVMHEALHNHYTQKSLSLSPGK light 2: EIVLTQSPATLSLSPGERATLSCRASKSVGWSLHWYQQKPGQAPRLLIKYASQSLSGIPARFSGSGSGTDFTLTISSLEPEDFAVYYCHQSSRLPFTFGPGTKVDIKRTVAAPSVFIFPPSDEQLKSGTASVVCLLNNFYPREAKVQWKVDNALQSGNSQESVTEQDSKDSTYSLESTLTLSKADYEKHKVYACEVTHQGLSSPVTKSFNRGEC heavy 2: not shown"
1.3 fold,0.43 nM,7.2 fold,0.57 nM,"iPS:571009 (5602) (bispecific antibody, human IgG1, kappa, lambda, N297G) light 1: QSVLTQPPSVSAAPGQKVTISCSGSYSNIGRYSVSWYQQLPGTAPKLLIYDNNKRPSGIPDRFSGSKSGTSATLGITGLQTGDEADYYCGTWDSRLSAVVFGGGTKLTVLGQPKAAPSVTLFPPSSEELQANKATLVCLISDFYPGAVTVAWKADSSPVKAGVETTTPSKQSNNKYAAKSYLSLTPEQWKSHRSYSCQVTHEGSTVEKTVAPTECS heavy 1: QVQLVESGGGVVQPGRSLRLSCAASGFTFSSFGMHWVRQAPGKGLEWVAVISFDGSIKYSVDSVKGRFTISRDNSKNTLFLQMNSLRAEDTAVYYCARDRLNYYESSGYYHYKYYGMAVWGQGTTVTVSSASTKGPSVFPLAPSSKSTSGGTAALGCLVKDYFPEPVTVSWNSGALTSGVHTFPAVLQSSGLYSLESVVTVPSSSLGTQTYICNVNHKPSNTKVDKKVEPKSCDKTHTCPPCPAPELLGGPSVFLFPPKPKDTLMISRTPEVTCVVVDVSHEDPEVKFNWYVDGVEVHNAKTKPCEEQYGSTYRCVSVLTVLHQDWLNGKEYKCKVSNKALPAPIEKTISKAKGQPREPQVYTLPPSRKEMTKNQVSLTCLVKGFYPSDIAVEWESNGQPENNYKTTPPVLKSDGSFFLYSKLTVDKSRWQQGNVFSCSVMHEALHNHYTQKSLSLSPGK light 2: EIVLTQSPATLSLSPGERATLSCRASKSVGRSLHWYQQKPGQAPRLLIKYASQSLSGIPARFSGSGSGTDFTLTISSLEPEDFAVYYCHQSSRLPFTFGPGTKVDIKRTVAAPSVFIFPPSDEQLKSGTASVVCLLNNFYPREAKVQWKVDNALQSGNSQESVTEQDSKDSTYSLESTLTLSKADYEKHKVYACEVTHQGLSSPVTKSFNRGEC heavy 2: not shown"
0.4 fold,1.4 nM,9.8 fold,0.7 nM,"iPS:454919 (bispecific antibody, human IgG1, kappa, lambda, N297G) light 1: QSVLTQPPSVSAAPGQKVTISCSGSSSNIGNNYVSWYQQLPGTAPKLLIYDNNKRPSGIPDRFSGSKSGTSTTLGITGLQTGDEADYYCGTWDSRLSAVVFGGGTKLTVLGQPKAAPSVTLFPPSSEELQANKATLVCLISDFYPGAVTVAWKADSSPVKAGVETTTPSKQSNNKYAAKSYLSLTPEQWKSHRSYSCQVTHEGSTVEKTVAPTECS heavy 1: QVQLVESGGGVVQPGRSLRLSCAASGFTFSSFGMHWVRQAPGKGLEWVAVISFDGSIKYSVDSVKGRFTISRDNSKNTLFLQMNSLRAEDTAVYYCARDRLNYYRSFGYYGYHYYGMAVWGQGTTVTVSSASTKGPSVFPLAPSSKSTSGGTAALGCLVKDYFPEPVTVSWNSGALTSGVHTFPAVLQSSGLYSLESVVTVPSSSLGTQTYICNVNHKPSNTKVDKKVEPKSCDKTHTCPPCPAPELLGGPSVFLFPPKPKDTLMISRTPEVTCVVVDVSHEDPEVKFNWYVDGVEVHNAKTKPCEEQYGSTYRCVSVLTVLHQDWLNGKEYKCKVSNKALPAPIEKTISKAKGQPREPQVYTLPPSRKKMTKNQVSLTCLVKGFYPSDIAVEWESNGQPENNYKTTPPVLKSDGSFFLYSKLTVDKSRWQQGNVFSCSVMHEALHNHYTQKSLSLSPGK light 2: EIVLTQSPATLSLSPGERATLSCRASKSVGYSLHWYQQKPGQAPRLLIKYASQSLSGIPARFSGSGSGTDFTLTISSLEPEDFAVYYCHQSSRLPFTFGPGTKVDIKRTVAAPSVFIFPPSDEQLKSGTASVVCLLNNFYPREAKVQWKVDNALQSGNSQESVTEQDSKDSTYSLESTLTLSKADYEKHKVYACEVTHQGLSSPVTKSFNRGEC heavy 2: not shown"
